assay: soluble on expression in E. coli; label from the status in PepcDB or PDB records

Soluble on expression in E. coli, not soluble:
MGSDKIHHHHHHMTAPLKSLFLLDPSVTYLNHGAYGATPRPVFERHVQWQYELEREPVDFLSRRFAERMAQARAILAEYVDTERDNLVYVSNGTTGVNIVARSLPLGPGDELLTTDHEHGGIERLWRFTAQKRGFEIVRHKVSLPVTTHARFVEDFWRDVTPRTRAILISQLTSPTALVFPVAAICARARARGILTIVDGSHVPGQLPLSLREMDPDFYVGILHKWVCAPKGSAFLYARPDVQPLVEPLVVSWGWEPKNPGPSKFVEYHEWQGSRDISAFLSVPSAIAFQREHDWDGVRKRCIALASDAQREVAALTREPLYHPPGAHEWHGQMVCAQLPPQTDDIALLARLRNECGIDVSVDRFGGRPRIRVSIQGYNGPDDVDRLLGSLKQLLRL
MGSDKIHHHHHHMTDRVLILGGRGRIGSSVAQDLANHTQAQITITGRSAEFGKAVSLSSGGQVQFLVLDLVEVDKLQNAIANSNLVIHCAGPFHYRDTNVLETCIAQGVNYVDVSDHRSYTSKALNFSEQAAAAGVTAIINTGIFPGISNSMVRQGVEQFDKPENIHLSYLVSGSGGAGITVMRTTFLGLQYPFETWIDGKWQVIKPYSERELVEFPPPYGRSGVYWFDMPETFTLPKAFPSVKTVITKFGSVPDFYNHLTWIAAHIFPKWLMQRRYMIEFLSHVSHSMTDVTNNFSGIGVAVRSEVTGQKDGKTAVYCSTVVHENTALASGCGTGSIAQLLLEGKLKKPGVFAVEEALPTDLFEEVMQSRGIKINHSWL
MGSDKIHHHHHHMTEFEVHIDLGGSTFPVGLARCNRVRGTERILFEYDAEWLASPDRFSLEPALALTRGAFAPPAGMTSFGSIGDSAPDTWGRRLMQRAERRRAAREGRSVRTLAESDYLLGVSDETRLGALRFRRVGETSFQAPIQAGVPALVELGRLLQVTERVLRDEETDEDLQLIFAPGSSLGGARPKASVIDQYGHLAIAKFPKDTDEYSVETWEEIALRLANQAGIVTPQHELVDVGGRAVMLSRRFDRDGTIRIPFLSAMAMMGARDGEPGSYPEMVDALTAHGAQGKTDAHALYRRVVFSVMISNVDDHLRNHGFLWLGNAGWSLAPAYDLNPVPSDLKARVLTTNIDLDESTCSVDLLEAASGYFGLTLANARRIIKDVASVTATWRNTARAVGARPAEIERMASAFEHDDLQHGLAL
MGSDKIHHHHHHMTENKNEKLGWINGHWGVFKDLKVPINDRGLNFADGIFETILILNGIPQLLDEHLNRWEKSASILEMNSPPSKEWLISLVEDGINQAQLKNINGVIRINWTRGESEQRGIDISKTSLHSFWLEIDSYQPNFESISTIISQTERRNSFSRLSSCKTFSYNQGIQARIEAKNLGFNDALLLNSQGEICCATTANILVKRENNWLTPPSNSGCLPGIMRQRGIELNIIKEALIEATPKDNDEWFLINSLSCRPIQKINKKELKISTNPKEFWLSLLKI
MGSDKIHHHHHHMTFMPEKRNADLLFRGFSKTRLMVITLIAVNGPMTVTQLSKVIKTTRSNLYQAIKEMVSDGILVQTRTVSEKNYVEKFYDINTDLFDAIKYGDIRKAIEEMDEDKLRNILYSFLRSASAILSIMAEQVNLSNKDDLDKYVDYVRKNLLIISFSTHSTKDMSKFSSMLSNFFTEIDDDNDEKKDEHLLYIVGFPILNQMGFISKSRHEKLTGDGKE
MGSDKIHHHHHHMTGFYEFFSLPDRVEVVCPLCDGCATFTYAHVLQIEKKDAHLFENEQFEIKLFNQRFAHKWPCVLFFPPLFGAVSWREKFPEKYQGASTWEHRANSAFTDGTDLGLICCHQCMAKQKHQLEWPQDAFYSIEFKGHLLWAFNKMMMQQIRDYIQAKDRDAVFASEPIVIRHLPTVFKLAKNREGLVKKINKLIYRP
MGSDKIHHHHHHMTGNDWIGSALHNSITCMGHSAAALAAPFAQASRRLIATLQAGGQVLSCGNGGSSGDAQHLASELVNRFETTRRALPAIALSTDSSVVTAIANDVCYEQIFARQIEALGRPGDCLVAFSTSGNSTNVIAAARTAQQRGMWVLALTGKEGGQLALLLRPVDIELRVPEQNTARIQEVHLVLIHALCSGVDASFVGDAPASVFHTGQVLRDWEALDEACTFRRPLVFTNGVFDVLHRGHVQYLAEARAEGACLVVGVNSDASVRRLGKGADRPVNSEEDRMAVLAGLQAVDFVTVFDDDTPLKLIQHLQPDVLIKGGDWPIERIVGADWVQAGGGRVLSIPFRHERSTTALLQKIRGSQP
MGSDKIHHHHHHMTGQMNILLANPRGFCAGVDRAISIVERALELFSPPIYVRHEVVHNRYVVQNLKDRGAIFVEELDQVPDNSIVIFSAHGVSQAVRAEAKKRGLKVFDATCPLVTKVHLQVTRASRKGVECILIGHEGHPEVEGTMGQYDNPEGGVYLIESVEDVEALQVKDPENLCFVTQTTLSVDDTLDIIAALQAKFPSIEGPRKDDICYATQNRQDAVRSLATQAKLFIVVGSKNSSNSNRLRELAEKSGAQAYLVDSAADVKAEWFANVDKVAVTAGASAPEVLVKQVIDAITHLAPSVVTEVEGRKEDVVFAVPVELR
MGSDKIHHHHHHMTHYKNNIDEAATLINSEGSAWNAINPESVARMRLQNRFKTGLDIAKYTAKIMREDMDNYDKDTSQYTQSLGCWHGFIAQQKMISIKKHLLTTKRRYLYLSGWMVAALRSEFGPLPDQSMHEKTSVAALIKELYTFLRQADARELGGLFRELDSAKESDKAAIQHKIENFETHVVPIIADIDAGFGNEEATYLMAKQMIEAGACCIQLENQVSDVKQCGHQDGKVTVPHVEFLAKINAVRYAFLELGIDDGVIVARTDSLGAGLTQKIAVTKEAGDLGDLYNSFLEVEAVDAAKLENGDVVFKQGGKLVKPARLPNGLFKFRAGTGEERCVLDCITSLQNGADLLWIETEKPHVSQIGGMVNEIRKVVPNAKLVYNNSPSFNWTLNFRQQVFDAMQKAGQDVSAYDRAQLMSVDYDGTELAIQADEKIRTFQSDSAREAGIFHHLITLPTYHTAALSTDNLAKEYFGDQGMLGYVANVQRKEIRQGIACVKHQNMAGSDIGDAHKEYFSGDQALKASGKDNTMNQF
MGSDKIHHHHHHMTIAIIIATHGVAAEQLLKTTEMLIGEQENVATIDFVPGENAETIMEKYQAKLSGDLAHCDKVLFLVDTWGGSPFNAANRVSEGKDNMDIVTGVNVPMLVETFMARDDGPSLDELVAIALETGRTGVRALRYQEPETEPTAPTSEVPAQPAASQAEPQPAMVTPNQEGHLEIGLARIDDRLIHGQVATRWTKESRVSRIVVVSDEVAKDTVRATMLKSVAPPGVTAHVVNVDKMVRVYNNPEYAGERMMLLFTNPTDVLRLSDAGVDFKSINVGGMAYRDGKKMITNAVSVDDKDIAAFKALDAKGIELDVRKVSNDNRQYMMDLLKKNNLL
MGSDKIHHHHHHMTIARRKSREVTIGNVRIGGDNPVVVQSMTNTDTRDVEQTVEQINSLAEAGCEIVRVAVLNDDAAWAIRPIKDQVTVPLVADIHFDHRLAVSALEAGVDALRINPGNIGGQKNVDKVVDAAKAHGSVIRVGVNGGSLERDLVEKYCGPTPEAMVESALRHVRMLEDRNFDNIKISLKSSSVTDTVTAYRLLGQQCEYPLHIGVTEAGTMLRGSVKSSVGIGILLWQGIGDTLRVSLTEDPVAEMAVAWEILRSLGLRFRGPEIISCPTCGRTEIDLISLAGEIERRLQNETQSFKVAVMGCVVNGPGEAREADIGIAGGRDKGIIFRHGEVIRTVKGGSNLLAAFNEELDKFLAERQGR
MGSDKIHHHHHHMTIATDSLKLITTVEQLKYYLIQAMKIEHATIPPYMTALYSIKPGKNLEAFHIIREVAVEEMLHLTLVANVYNAVGGSFASPVLTAPNFIPTYPSYLPTGSTDFKVGLTKFSKKTIETFRKIERSKDVEEGDPLVESRSLQEYLLEVVGCDPTKTFYSIGLFYAEIIRGLNALYKEKGPDLFCGDPRRQITPEYYYNGGGDIIPVTDLRSAMRALKVIQEQGEGSRSGTIYDAERELAHDYRFQQILLEKYYVIDKDDPTKSDQPNEPTGKSFNVDWNEVYPIKDNAKLSDYPEGSEVRTAALAFHSAYSEFLAKIEYAFDGHPEQLVPAVGGMFRLKEQANSLMRNPIPGNPGVNAAPIFKLDKR
MGSDKIHHHHHHMTIDDLKSFMLVCRLHSFSTAAVELSMTQSALSKRLQAIQQEVGSEFISTENRRQILITESGKVFYRYAQRIVSSYDELEQELKAYRELKKGNLQIGRVPVMSQYGLTKIINIFERSYPQIDIHLNELEGNDLLMVLKAGEIDAGIIRDIQTKTIDNNHFNSYTLDRDELKVVLPANDSLNNKKRISIEELANYQVISLESGSGIYEKMVEIYNNAGIPLNVGFKTTHIETIMGMIKNSDQITFLFKKSAMPFMNKQLVMLSLDQPIYSNLELICPRENQHKPALTKFIEYMKKYTSEPVESYP
MGSDKIHHHHHHMTIMDWNTIKGLVPVSGVQPDFVNCLDAFPVLKRAKETPQEPRYHGEGDVWTHTMMVIESLLQLPDYQTATREQQEILFFAALLHDVAKYRTTVIDPVTGQIGQPGHSRKGAIDARVLLWDADVPFAIREAICRLIAVHQVPFYCLEDERRRVSPIFTIRELSWQLSIPLLATLAEADIRGRICQDQTRVLDSIELFRELAREEGCYGQPRAFVDAHTRLSYFRGADVHPDYPLFQEPGSKVTVMCGLPASGKDTWVRTHRHDLPVVSFDDARTELGLKHGENEGKAVHWATDKARSLLRTHEPFVWNATHLSQQMRTRTLDLCYAYGAEVEIVYLERPRQELLRRNGKRDTTLSNKTLQGMLTKWELPSPTEAHVVRYES
MGSDKIHHHHHHMTISRNYDQEIKDTAGHKYAYNFDFDVMHPFMVRAFTPFFRPGNLLELGSFKGDFTSRLQEHFNDITCVEASEEAISHAQGRLKDGITYIHSRFEDAQLPRRYDNIVLTHVLEHIDDPVALLKRINDDWLAEGGRLFLVCPNANAVSRQIAVKMGIISHNSAVTEAEFAHGHRCTYALDTLERDASRAGLQVTYRSGIFFKALANFQWDQILQTDILSKEYLDGCYQLGQQYPDLCASIFLLCEKGINQ
MGSDKIHHHHHHMTKHPLKSLAASVRAAIADPARTTFVGSDANPRFELFHAASSLCSQKVRTVLFEKQLPYRSNDMKILSSMGPDGVVPAEHYHAPYVGLRLIAGEEIGREFVSGYSGRTSVQTEGFDPCVVPLLVDYEASRVIADSRRICCYLDAVSRNPVQLVPEDADARALVMQQVDIVDRIPNGTLLYGFHPDADLRPEALRTVMESVYDYKVAALKAMIDANADNAELVSAYRAKIAKEQGGKSVRHDAALQRAARDHVAVLLADLDRLLGTSSPYLLGPHFSLGDVLWGVNLTRLAYLGLASMWKDRPNVIRYVNALLTRPSLRKEAVRATMDSMPPSRYFDVVSGTAEVASM
MGSDKIHHHHHHMTKKVLILGAHGKIARLAEKEFLEKTDDSLKLFLRKASRLNPVQPDRETVIEGDATNLEQLVAAMQGVDAVYANLAGGDIKQQAQAVVKAMDKVGIKRLVWISTLGIYDEVPGKFGEWNNSTLGSYITNYRAAADVIEDSDLDYTIVRPAWLTNNDEVDFEVTQKGEVFKGTEVSRKSIAHIVVELIQNNTELKHSIGVNKPNTDGDKPSWY
MGSDKIHHHHHHMTKSDLLFDKFNDKHGKFLVFFGTFVDTPKLGELRIREKTSVGVLNGIIRFVNRNSLDPVKDCLDHDSSLSPEDVTVVDIIGKDKTRNNSFYFPGFVDTHNHVSQYPNVGVFGNSTLLDWLEKYTFPIEAALANENIAREVYNKVISKTLSHGTTTVAYYNTIDLKSTKLLAQLSSLLGQRVLVGKVCMDTNGPEYYIEDTKTSFESTVKVVKYIRETICDPLVNPIVTPRFAPSCSRELMQQLSKLVKDENIHVQTHLSENKEEIQWVQDLFPECESYTDVYDKYGLLTEKTVLAHCIHLTDAEARVIKQRRCGISHCPISNSSLTSGECRVRWLLDQGIKVGLGTDVSAGHSCSILTTGRQAFAVSRHLAMRETDHAKLSVSECLFLATMGGAQVLRMDETLGTFDVGKQFDAQMIDTNAPGSNVDMFHWQLKEKDQMQEQEQEQGQDPYKNPPLLTNEDIIAKWFFNGDDRNTTKVWVAGQQVYQI

Source: the DeepSol protein solubility set
